The target in assay [1] is T1, tetanus toxoid (UniProt P04958 2-1315).
T1 construct: also called TT
Put plainly: ELISA, coated tetanus toxoid 1 ug/ml. In general terms: An ELISA detects its analyte on a solid surface through an enzyme-linked reagent.

Assay [2] has as its target T1, tetanus toxoid. Put plainly: ELISA, […] (100 ug/ml) […].

T1 sequence (P04958 2-457 limits assumed, chain 1 of 2): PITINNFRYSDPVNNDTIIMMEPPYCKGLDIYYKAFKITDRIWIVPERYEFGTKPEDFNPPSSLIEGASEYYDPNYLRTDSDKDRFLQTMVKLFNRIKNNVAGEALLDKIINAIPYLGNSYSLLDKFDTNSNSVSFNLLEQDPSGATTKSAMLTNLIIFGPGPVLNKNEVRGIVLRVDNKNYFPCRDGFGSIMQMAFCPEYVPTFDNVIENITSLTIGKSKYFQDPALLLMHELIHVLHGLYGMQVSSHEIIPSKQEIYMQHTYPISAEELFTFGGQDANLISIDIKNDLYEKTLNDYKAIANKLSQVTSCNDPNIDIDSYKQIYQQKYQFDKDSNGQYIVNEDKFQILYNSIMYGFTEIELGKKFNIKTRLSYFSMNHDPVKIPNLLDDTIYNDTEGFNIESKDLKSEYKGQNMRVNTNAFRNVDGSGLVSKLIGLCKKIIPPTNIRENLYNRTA
T1 sequence (P04958 458-1315 limits assumed, chain 2 of 2): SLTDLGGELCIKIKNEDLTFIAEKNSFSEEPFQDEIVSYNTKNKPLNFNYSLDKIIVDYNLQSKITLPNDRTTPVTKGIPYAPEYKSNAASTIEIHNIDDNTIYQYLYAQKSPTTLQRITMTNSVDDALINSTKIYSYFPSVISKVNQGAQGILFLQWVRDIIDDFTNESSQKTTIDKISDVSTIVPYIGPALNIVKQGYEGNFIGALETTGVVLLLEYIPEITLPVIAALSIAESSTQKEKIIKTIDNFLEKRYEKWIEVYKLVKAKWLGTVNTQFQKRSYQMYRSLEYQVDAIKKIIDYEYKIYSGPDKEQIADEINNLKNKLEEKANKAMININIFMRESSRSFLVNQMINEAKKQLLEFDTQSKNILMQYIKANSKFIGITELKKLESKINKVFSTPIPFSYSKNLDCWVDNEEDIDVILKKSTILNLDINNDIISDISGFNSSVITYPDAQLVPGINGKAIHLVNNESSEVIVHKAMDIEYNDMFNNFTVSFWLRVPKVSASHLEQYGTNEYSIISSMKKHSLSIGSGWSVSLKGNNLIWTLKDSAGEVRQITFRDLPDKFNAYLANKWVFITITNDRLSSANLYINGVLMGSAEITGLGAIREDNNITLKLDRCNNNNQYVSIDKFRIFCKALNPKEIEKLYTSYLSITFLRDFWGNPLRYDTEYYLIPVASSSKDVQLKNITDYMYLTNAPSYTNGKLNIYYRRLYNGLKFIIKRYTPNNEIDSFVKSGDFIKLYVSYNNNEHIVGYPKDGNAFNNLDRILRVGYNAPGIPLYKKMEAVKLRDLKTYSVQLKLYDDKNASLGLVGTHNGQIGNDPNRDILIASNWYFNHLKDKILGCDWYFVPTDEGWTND

B1: Fab molecule clone 1:5 (Fab, V domains shown)
VH: VQLLEQSGAEVRKPGSSVKVSCKASGGTFSGHVITWVRQAPGQGLEWMGESIPIFGSANYAQNYAQKFRDRVSIIADESTSTSFIELSNLRSDDTAVYYCARDPPRYCSAGRCYPGFFQQWGQGTLVTVSS
VL: AELTQSPGTLSLSPGERATLSCRASQSVSSNYLAWYQQRPGQAPRLLIYGASSRATGIPDRFSGSGSGTDFTLTISRLEPEDFAVYYCQLYGNSRWTFGQGTKVEIK
For the molecule B1, in the assay with tetanus toxoid [1], the binding result is “no binding”.

B2: Fab molecule clone L3 (Fab, V domains shown)
VH: EVQLLESGGGVVQPGRSLRLSCAASGFTFKTYGMHWVRQAPGKGLEWVAGISFDGSNQYYADSVKGRFIVSRDNSRDTVFLQMSSLRLEDTAVYYCATEGSPFGSIKGRYYLENWGQGTLVTVSS
VL: AELTQSPATLSVSPGERASLSCRASQSVGNNLAWYQQKPGQAPRLLIYGGNTRATGTPDRFSGSGSGTEFTLTISSLQSEDFAVYFCQHYSTWPLTFGGGTKVEFK
With B2, in the assay with tetanus toxoid [2], the “OD405 nm (ELISA reactivity)” value amounted to 0.313 OD405 nm. For the same molecule, the binding result in the assay with tetanus toxoid [1] is given as “no binding”.

For the origin of these results see patent US6747136 (KAROLINA INNOVATIONS, dated 2004).
